Laboratory results taken from publication PMC7865074.
Like-named read-outs stand apart in the source and are kept apart here.

Key:
[1] = target: full-length (FL) NS5 protein (wt PBM) of West Nile virus (West Nile virus); assay: split reporter (BiFC, NanoBiT); N2H split-NanoLuc in HEK-293T cells; full-length NS5 with 257 single PDZ domains; read-out NLR with NS5 minus NLR with NS5ΔPBM, three experiments; hits > 0.25
[2] = target: full-length (FL) NS5 protein (wt PBM) of West Nile virus (West Nile virus); assay: split reporter (BiFC, NanoBiT); N2H split-NanoLuc in HEK-293T cells; full-length NS5 with 91 full-length human PDZ proteins (ORFs); read-out NLR; hits NLR > 1.35
[3] = target: full-length (FL) NS5 protein (wt PBM) of West Nile virus (West Nile virus); assay: as above; remark: listed apart in the source
[4] = target: biotinylated WNV NS5 PBM peptide (West Nile virus); assay: holdup assay (automated high-throughput chromatography); biotinylated NS5 PBM peptide as bait against 259 human PDZ domains expressed in E. coli; read-out binding intensity (BI), mean of replicates; BI threshold 0.2 for a significant interaction

Chain of Serine protease HTRA1, PDZ domain (N2H construct) (Q92743 365-467): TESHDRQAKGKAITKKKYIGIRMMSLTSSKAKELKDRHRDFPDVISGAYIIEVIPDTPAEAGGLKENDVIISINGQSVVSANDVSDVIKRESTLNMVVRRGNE
Chain of Microtubule-associated serine/threonine-protein kinase 1, PDZ domain (N2H construct) (Q9Y2H9 967-1055): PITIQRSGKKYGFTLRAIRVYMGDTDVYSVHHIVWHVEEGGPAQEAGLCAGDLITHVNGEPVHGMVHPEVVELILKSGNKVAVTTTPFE
Chain of Microtubule-associated serine/threonine-protein kinase 2, PDZ domain (N2H construct) (Q6P0Q8 1104-1192): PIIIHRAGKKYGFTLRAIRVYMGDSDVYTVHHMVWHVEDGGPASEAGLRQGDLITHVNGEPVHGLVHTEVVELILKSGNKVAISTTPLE
Chain of FERM and PDZ domain-containing protein 4, PDZ domain (N2H construct) (Q14CM0 78-155): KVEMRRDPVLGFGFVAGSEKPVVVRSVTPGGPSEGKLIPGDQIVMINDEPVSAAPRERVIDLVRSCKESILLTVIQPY
Chain of Protein scribble homolog, PDZ domain 1 (N2H construct) (Q14160 728-815): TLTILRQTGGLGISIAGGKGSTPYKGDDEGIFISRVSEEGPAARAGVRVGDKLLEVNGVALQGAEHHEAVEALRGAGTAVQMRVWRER
Chain of Protein scribble homolog, PDZ domain 4 (N2H construct) (Q14160 1100-1194): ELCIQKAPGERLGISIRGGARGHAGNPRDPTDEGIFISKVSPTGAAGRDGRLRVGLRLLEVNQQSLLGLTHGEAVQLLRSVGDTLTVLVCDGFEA
Chain of Partitioning defective 3 homolog, PDZ domain 1 (N2H construct) (Q8TEW0 271-359): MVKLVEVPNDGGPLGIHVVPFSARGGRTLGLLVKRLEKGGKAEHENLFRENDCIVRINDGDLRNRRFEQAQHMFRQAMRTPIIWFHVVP
Chain of Connector enhancer of kinase suppressor of ras 3, full-length protein (ORF, N2H construct) (Q6P9H4 whole entry): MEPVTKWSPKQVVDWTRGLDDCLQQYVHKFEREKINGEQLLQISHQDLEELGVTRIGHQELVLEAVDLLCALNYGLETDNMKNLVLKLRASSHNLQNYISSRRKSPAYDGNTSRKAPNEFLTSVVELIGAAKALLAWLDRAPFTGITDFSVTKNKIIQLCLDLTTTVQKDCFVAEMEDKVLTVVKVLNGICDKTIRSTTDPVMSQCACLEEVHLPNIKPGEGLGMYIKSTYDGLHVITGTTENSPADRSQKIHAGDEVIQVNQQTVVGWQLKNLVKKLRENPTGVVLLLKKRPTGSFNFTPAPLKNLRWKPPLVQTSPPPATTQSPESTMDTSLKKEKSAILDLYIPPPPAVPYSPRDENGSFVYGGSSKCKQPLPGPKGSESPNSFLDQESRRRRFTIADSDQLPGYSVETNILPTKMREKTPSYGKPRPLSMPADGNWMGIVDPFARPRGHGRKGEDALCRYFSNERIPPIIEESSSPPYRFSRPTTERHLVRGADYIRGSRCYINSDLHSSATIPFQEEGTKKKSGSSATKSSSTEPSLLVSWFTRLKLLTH
Chain of Connector enhancer of kinase suppressor of ras 3, PDZ domain (N2H construct) (Q6P9H4 211-293): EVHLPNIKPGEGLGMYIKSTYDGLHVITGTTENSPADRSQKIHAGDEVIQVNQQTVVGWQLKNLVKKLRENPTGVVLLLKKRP

| Substance | NLR(NS5) - NLR(NS5ΔPBM) [1] | also measured |
| --- | --- | --- |
| Connector enhancer of kinase suppressor of ras 3, PDZ domain (N2H construct) (from UniProt Q6P9H4 211-293) (domain or fragment) | 6.27 | – |
| Microtubule-associated serine/threonine-protein kinase 2, PDZ domain (N2H construct) (from UniProt Q6P0Q8 1104-1192) (domain or fragment) | 0.87 | – |
| Protein scribble homolog, PDZ domain 4 (N2H construct) (from UniProt Q14160 1100-1194) (domain or fragment) | 0.56 | – |
| FERM and PDZ domain-containing protein 4, PDZ domain (N2H construct) (from UniProt Q14CM0 78-155) (domain or fragment) | < 0.25 | – |
| Microtubule-associated serine/threonine-protein kinase 1, PDZ domain (N2H construct) (from UniProt Q9Y2H9 967-1055) (domain or fragment) | < 0.25 | – |
| Rho GTPase-activating protein 21, full-length protein (ORF, N2H construct) (from UniProt Q5T5U3 1-1958) (natural protein) | – | NLR [2]: 4.4; NLR [3]: 4.41 |
| Serine protease HTRA1, PDZ domain (N2H construct) (from UniProt Q92743 365-467) (domain or fragment) | < 0.25 | – |
| Partitioning defective 3 homolog, PDZ domain 1 (N2H construct) (from UniProt Q8TEW0 271-359) (domain or fragment) | 1.24 | – |
| Connector enhancer of kinase suppressor of ras 3, full-length protein (ORF, N2H construct) (from UniProt Q6P9H4 1-555) (natural protein) | – | NLR [2]: 1.91 |
| SH3 and multiple ankyrin repeat domains protein 2, full-length protein (ORF, N2H construct) (from UniProt Q9UPX8 1-1849) (natural protein) | – | NLR [2]: 4.38 |
| Golgi reassembly-stacking protein 2, PDZ domain (holdup construct) (domain or fragment) | – | BI (holdup binding intensity) [4]: < 0.15 |
| Protein scribble homolog, PDZ domain 1 (N2H construct) (from UniProt Q14160 728-815) (domain or fragment) | 0.76 | – |
| Golgi reassembly-stacking protein 2, PDZ domain (N2H construct) (domain or fragment) | 1.32 | – |
